Source: publication PMC2743173 (Neuron, 2008)

What was measured:
[1] = molecular target: LRP4N-Myc (UniProt Q9QYP1); experiment: ELISA
[2] = molecular target: LRP4N-Myc (UniProt Q9QYP1 21-1723); experiment: ELISA
Sequence of LRP4N-Myc (UniProt Q9QYP1 21-1723) (Q9QYP1 21-1723): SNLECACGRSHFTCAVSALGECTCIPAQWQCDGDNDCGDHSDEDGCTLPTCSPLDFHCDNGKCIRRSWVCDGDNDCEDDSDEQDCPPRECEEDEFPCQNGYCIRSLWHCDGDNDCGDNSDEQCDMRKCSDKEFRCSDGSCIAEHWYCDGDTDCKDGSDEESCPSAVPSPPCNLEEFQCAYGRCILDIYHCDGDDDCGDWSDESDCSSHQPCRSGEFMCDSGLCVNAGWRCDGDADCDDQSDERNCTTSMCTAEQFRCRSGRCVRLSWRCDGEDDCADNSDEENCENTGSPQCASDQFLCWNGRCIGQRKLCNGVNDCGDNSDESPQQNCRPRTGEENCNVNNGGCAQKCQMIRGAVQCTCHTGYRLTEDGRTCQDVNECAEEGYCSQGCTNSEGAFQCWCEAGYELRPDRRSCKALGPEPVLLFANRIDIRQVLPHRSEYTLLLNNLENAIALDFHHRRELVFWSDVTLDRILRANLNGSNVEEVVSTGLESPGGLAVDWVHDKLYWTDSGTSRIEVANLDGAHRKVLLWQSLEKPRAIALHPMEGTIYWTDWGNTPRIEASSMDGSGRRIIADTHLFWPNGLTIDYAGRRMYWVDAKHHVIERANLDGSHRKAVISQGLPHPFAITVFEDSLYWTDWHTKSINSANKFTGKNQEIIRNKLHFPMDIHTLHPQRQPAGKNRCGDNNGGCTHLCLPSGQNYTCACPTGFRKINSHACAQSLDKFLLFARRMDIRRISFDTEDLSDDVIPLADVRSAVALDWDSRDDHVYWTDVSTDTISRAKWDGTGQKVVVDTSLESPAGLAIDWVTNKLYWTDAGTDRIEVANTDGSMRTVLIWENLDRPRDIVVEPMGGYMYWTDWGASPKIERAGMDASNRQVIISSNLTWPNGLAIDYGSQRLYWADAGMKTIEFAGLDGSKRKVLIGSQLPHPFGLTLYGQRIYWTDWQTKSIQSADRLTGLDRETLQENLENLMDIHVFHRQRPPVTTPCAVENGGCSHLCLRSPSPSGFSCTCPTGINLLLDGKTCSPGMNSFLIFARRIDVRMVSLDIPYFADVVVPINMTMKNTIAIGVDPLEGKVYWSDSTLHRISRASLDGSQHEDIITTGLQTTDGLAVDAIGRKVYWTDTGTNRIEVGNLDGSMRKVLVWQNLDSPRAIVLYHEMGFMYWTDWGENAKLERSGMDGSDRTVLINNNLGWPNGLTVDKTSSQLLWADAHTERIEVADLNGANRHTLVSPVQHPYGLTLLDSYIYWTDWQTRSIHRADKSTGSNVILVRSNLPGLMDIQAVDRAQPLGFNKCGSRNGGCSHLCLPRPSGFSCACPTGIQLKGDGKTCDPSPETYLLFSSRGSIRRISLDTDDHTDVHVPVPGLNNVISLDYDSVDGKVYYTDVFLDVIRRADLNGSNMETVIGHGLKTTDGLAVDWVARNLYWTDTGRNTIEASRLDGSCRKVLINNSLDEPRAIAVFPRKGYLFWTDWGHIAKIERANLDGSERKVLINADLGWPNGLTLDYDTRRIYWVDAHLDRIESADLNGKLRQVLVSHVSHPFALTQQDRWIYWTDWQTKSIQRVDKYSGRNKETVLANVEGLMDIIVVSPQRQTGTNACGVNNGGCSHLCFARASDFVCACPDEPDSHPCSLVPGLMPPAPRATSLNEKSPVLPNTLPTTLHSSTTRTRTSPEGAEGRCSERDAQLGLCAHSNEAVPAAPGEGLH

Sequence of LRP4N-Myc (UniProt Q9QYP1) (Q9QYP1 21-1723): as above

Q: nAgrin-AP (domain or fragment) was tested. Which Kd [1] did it give?
A: 0.5 nM

B1: MuSK-AP (domain or fragment)
chain: EKLPKAPVITTPLETVDALVEEVATFMCAVESYPQPEISWTRNKILIKLFDTRYSIRENGQLLTILSVEDSDDGIYCCIANNGVGGAVESCGALQVKMKPKITRPPINVKIIEGLKAVLPCTTMGNPKPSVSWIKGDNALRENSRIAVLESGSLRIHNVQKEDAGQYRCVAKNSLGTAYSKLVKLEVEVFARILRAPESHNVTFGSFVTLRCTAIGIPVPTISWIENGNAVSSGSIQESVKDRVIDSRLQLFITKPGLYTCIATNKHGEKFSTAKAAATVSIAEWSKSQKDSQGYCAQYRGEVCDAVLAKDALVFFNTSYRDPEDAQELLIHTAWNELKAVSPLCRPAAEALLCNHLFQECSPGVVPTPMPICREYCLAVKELFCAKEWQAMEGKAHRGLYRSGMHLLPVPECSKLPSMHRDPTACTRLPYLDYKKENITTFPSITSSRPSADIPNLPASTSSFAVSPAYSMT
Q: With B1 as the molecule, how does the Kd [2] read?
A: 0.45 ± 0.041 nM
